The source of these data is publication PMC8259415.

One test deals with Abl2 SH2 domain (UniProt Q4JIM5). Nature of the test: SH2-coupled bead pull-down from lysate, blot. Conditions: reference: wild type.
Test [1] has as its target Abl2 Src homology 2 (SH2) domain (UniProt Q4JIM5). Nature of the test: pull-down; Abl2 SH2 covalently linked to AminoLink beads, 1 μM; 0 to 2 μM PDGFRβ CD; 1 h at 4 °C; 50 mM Hepes pH 7.25, 150 mM NaCl, 5% glycerol, 1 mM DTT; SDS-PAGE, Coomassie densitometry, one-site specific binding fit.

UniProt Q4JIM5, sequence (Q4JIM5 173-263): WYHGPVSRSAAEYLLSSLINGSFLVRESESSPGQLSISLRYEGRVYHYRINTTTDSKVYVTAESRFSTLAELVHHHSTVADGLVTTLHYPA

Regarding PDGFRβ (from UniProt P09619) Y771F, the other: percent reduction relative to WT with Abl2 SH2 domain (sites Y771) was 90%.
By Kd is commonly meant the constant that tells how readily two partners part at equilibrium. Low readings indicate higher affinity, high ones lower affinity. Substance “autophosphorylated PDGFRβ cytoplasmic domain (CD) (from UniProt P09619 554-1106) (domain or fragment)” had a dissociation constant Kd in test [1] of 260 nM.
As to PDGFRβ (from UniProt P09619) Y751F, the other: percent reduction relative to WT in the test with Abl2 SH2 domain (sites Y751) came out at 10%.
